# Paper PMC3865065 (Nature, 2013)
# B1: extracellular Venus Flytrap (VFT) module of human GBR1b (domain or fragment, UniProt Q9UBS5-2 48-459, looked up)
# chain: SERRAVYIGALFPMSGGWPGGQACQPAVEMALEDVNSRRDILPDYELKLIHHDSKCDPGQATKYLYELLYNDPIKIILMPGCSSVSTLVAEAARMWNLIVLSYGSSSPALSNRQRFPTFFRTHPSATLHNPTRVKLFEKWGWKKIATIQQTTEVFTSTLDDLEERVKEAGIEITFRQSFFSDPAVPVKNLKRQDARIIVGLFYETEARKVFCEVYKERLFGKKYVWFLIGWYADNWFKIYDPSINCTVDEMTEAVEGHITTEIVMLNPANTRSISNMTSQEFVEKLTKRLKRHPEETGGFQEAPLAYDAIWALALALNKTSGGGGRSGVRLEDFNYNNQTITDQIYRAMNSSSFEGVSGHVVFDASGSRMAWTLIEQLQGGSYKKIGYYDSTKDDLSWSKTDKWIGGSPPAD
# modifications: carbohydrate at Asn323 and Asn365 (seen in apo and antagonist-bound structures)
# Target: T1, extracellular Venus Flytrap (VFT) module of human GBR2 (human, UniProt O75899 42-466, carbohydrate at Asn404)
# T1 sequence (looked up): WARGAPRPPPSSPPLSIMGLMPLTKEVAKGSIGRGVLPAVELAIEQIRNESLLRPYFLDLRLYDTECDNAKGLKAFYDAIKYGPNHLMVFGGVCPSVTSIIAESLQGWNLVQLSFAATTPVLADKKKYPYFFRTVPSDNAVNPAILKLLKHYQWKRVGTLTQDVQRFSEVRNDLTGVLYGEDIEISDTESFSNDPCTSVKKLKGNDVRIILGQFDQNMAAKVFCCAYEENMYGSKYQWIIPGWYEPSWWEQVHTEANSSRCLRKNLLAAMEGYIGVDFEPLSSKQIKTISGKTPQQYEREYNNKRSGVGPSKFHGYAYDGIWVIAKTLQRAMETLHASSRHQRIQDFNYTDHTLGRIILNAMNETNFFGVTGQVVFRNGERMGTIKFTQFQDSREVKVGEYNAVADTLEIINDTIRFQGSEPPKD
# Assay: crystal structure
binder,measurement,value
B1,binding result,binds
